Laboratory results as given in paper PMC3981819, “Signaling Properties and Pharmacological Analysis of Two Sulfakinin Receptors from the Red Flour Beetle, Tribolium castaneum” (PLoS ONE, 2014).
Square brackets hold non-standard residues; d marks the D form. Ends that are not written are not given here. * marks the point of attachment. SO3H = sulfate on Tyr (sulfated tyrosine), O=S(=O)(O)*; sY = N[C@@H](Cc1ccc(OS(=O)(=O)O)cc1)C(=O)O; pGlu = O=C1CC[C@@H](C(=O)O)N1

B1: sulfated C-terminal fragment of T. castaneum SK comprising amino acids 5–13 (peptide)
peptide: FDDY(SO3H)GHMRF-NH2
modifications: N-terminus assumed
SMILES: CSCC[C@H](NC(=O)[C@H](Cc1c[nH]cn1)NC(=O)CNC(=O)[C@H](Cc1ccc(OS(=O)(=O)O)cc1)NC(=O)[C@H](CC(=O)O)NC(=O)[C@H](CC(=O)O)NC(=O)[C@@H](N)Cc1ccccc1)C(=O)N[C@@H](CCCNC(=N)N)C(=O)N[C@@H](Cc1ccccc1)C(N)=O
B2: sulfated SK from the migratory locust, Locusta migratoria (peptide)
peptide: [pGlu]LASDDY(SO3H)GHMRF-NH2
SMILES: CSCC[C@H](NC(=O)[C@H](Cc1c[nH]cn1)NC(=O)CNC(=O)[C@H](Cc1ccc(OS(=O)(=O)O)cc1)NC(=O)[C@H](CC(=O)O)NC(=O)[C@H](CC(=O)O)NC(=O)[C@H](CO)NC(=O)[C@H](C)NC(=O)[C@H](CC(C)C)NC(=O)[C@@H]1CCC(=O)N1)C(=O)N[C@@H](CCCNC(=N)N)C(=O)N[C@@H](Cc1ccccc1)C(N)=O
B3: 1679[φ1]wp-4 (peptide)
peptide: [pGlu]PS[sY]DRDIMSF-NH2
SMILES: CC[C@H](C)[C@H](NC(=O)[C@H](CC(=O)O)NC(=O)[C@H](CCCNC(=N)N)NC(=O)[C@H](CC(=O)O)NC(=O)[C@H](Cc1ccc(OS(=O)(=O)O)cc1)NC(=O)[C@H](CO)NC(=O)[C@@H]1CCCN1C(=O)[C@@H]1CCC(=O)N1)C(=O)N[C@@H](CCSC)C(=O)N[C@@H](CO)C(=O)N[C@@H](Cc1ccccc1)C(N)=O
B4: 1567[φ1]wp-5 (peptide)
peptide: SPVD[sY]DRPIMAF-NH2
modifications: N-terminus assumed
SMILES: CC[C@H](C)[C@H](NC(=O)[C@@H]1CCCN1C(=O)[C@H](CCCNC(=N)N)NC(=O)[C@H](CC(=O)O)NC(=O)[C@H](Cc1ccc(OS(=O)(=O)O)cc1)NC(=O)[C@H](CC(=O)O)NC(=O)[C@@H](NC(=O)[C@@H]1CCCN1C(=O)[C@@H](N)CO)C(C)C)C(=O)N[C@@H](CCSC)C(=O)N[C@@H](C)C(=O)N[C@@H](Cc1ccccc1)C(N)=O
B5: 1569[φ2]wp-4 (peptide)
peptide: PVD[sY]DRPIMAF-NH2
modifications: N-terminus assumed
SMILES: CC[C@H](C)[C@H](NC(=O)[C@@H]1CCCN1C(=O)[C@H](CCCNC(=N)N)NC(=O)[C@H](CC(=O)O)NC(=O)[C@H](Cc1ccc(OS(=O)(=O)O)cc1)NC(=O)[C@H](CC(=O)O)NC(=O)[C@@H](NC(=O)[C@@H]1CCCN1)C(C)C)C(=O)N[C@@H](CCSC)C(=O)N[C@@H](C)C(=O)N[C@@H](Cc1ccccc1)C(N)=O
B6: 1678B[φ1]wp-6 (peptide)
peptide: DG[sY]RPLQF-NH2
modifications: N-terminus assumed
SMILES: CC(C)C[C@H](NC(=O)[C@@H]1CCCN1C(=O)[C@H](CCCNC(=N)N)NC(=O)[C@H](Cc1ccc(OS(=O)(=O)O)cc1)NC(=O)CNC(=O)[C@@H](N)CC(=O)O)C(=O)N[C@@H](CCC(N)=O)C(=O)N[C@@H](Cc1ccccc1)C(N)=O
B7: 1835[φ2]wp-4 (peptide)
peptide: SDD[sY]GHMRF-NH2
modifications: N-terminus assumed
SMILES: CSCC[C@H](NC(=O)[C@H](Cc1c[nH]cn1)NC(=O)CNC(=O)[C@H](Cc1ccc(OS(=O)(=O)O)cc1)NC(=O)[C@H](CC(=O)O)NC(=O)[C@H](CC(=O)O)NC(=O)[C@@H](N)CO)C(=O)N[C@@H](CCCNC(=N)N)C(=O)N[C@@H](Cc1ccccc1)C(N)=O
B8: 1678A[φ1]wp-4 (peptide)
peptide: D[sY]RPLQF-NH2
modifications: N-terminus assumed
SMILES: CC(C)C[C@H](NC(=O)[C@@H]1CCCN1C(=O)[C@H](CCCNC(=N)N)NC(=O)[C@H](Cc1ccc(OS(=O)(=O)O)cc1)NC(=O)[C@@H](N)CC(=O)O)C(=O)N[C@@H](CCC(N)=O)C(=O)N[C@@H](Cc1ccccc1)C(N)=O

Target: Tribolium castaneum sulfakinin receptor 2 (T. castaneum)

| EC50 of CRE-luciferase bioluminescence (cAMP) in HEK293T cells cotransfected with the receptor | Binder |
| --- | --- |
| 1.4 nM | B1 |

Target: Tribolium castaneum sulfakinin receptor 1 (T. castaneum)

| EC50 of CRE-luciferase bioluminescence (cAMP) in HEK293T cells cotransfected with the receptor | Binder |
| --- | --- |
| 0.0049 nM | B1 |

Target: Tribolium castaneum sulfakinin receptor 2 (T. castaneum)
Remark: another data set of the same source

| EC50 of aequorin bioluminescence (Ca2+) in CHO-WTA11 cells (Gα16) transfected with the receptor, peptide 1 fM to 1 μM | Binder |
| --- | --- |
| 776 nM | B2 |
| 0.524 nM | B1 |

Target: Tribolium castaneum sulfakinin receptor 1 (T. castaneum)
Remark: another data set of the same source

| EC50 of aequorin bioluminescence (Ca2+) in CHO-WTA11 cells (Gα16) transfected with the receptor, peptide 1 fM to 1 μM | Binder |
| --- | --- |
| 16.8 nM | B2 |
| 0.0995 nM | B1 |

Target: Tribolium castaneum sulfakinin receptor 2 (T. castaneum)
Remark: another data set of the same source

| aequorin bioluminescence in CHO-WTA11 cells transfected with the receptor, peptide at 1 μM, % of the response to 1 μM sTrica-SK(5–13) | aequorin bioluminescence in CHO-WTA11 cells transfected with the receptor, peptide at 1 μM, % of the response to 1 μM sTrica-SK(5–13) (this peptide is the 100% reference) | Binder |
| --- | --- | --- |
| 16.6% |  | B3 |
| 33.7% |  | B4 |
| 79.9% |  | B2 |
| 33.4% |  | HMRF-NH2 [2052[φ1]wp-3] |
| 11.2% |  | SPVDYDRPIMAF-NH2 [1432-2[φ]wp-6] |
| 44.6% |  | GHMRF-NH2 [2053[φ1]wp-4] |
| 21.2% |  | YGHMRF-NH2 (ends and bridges not checked) [2011[φ1]wp-1] |
| 13.4% |  | B5 |
|  | 100% | B1 |
| 19.9% |  | B6 |
| 19.7% |  | FDDYGHMR-NH2 (ends and bridges not checked) [2076[φ1]wp-2] |
| 41.4% |  | B7 |
| 32.6% |  | B8 |

Target: Tribolium castaneum sulfakinin receptor 1 (T. castaneum)
Remark: another data set of the same source

| aequorin bioluminescence in CHO-WTA11 cells transfected with the receptor, peptide at 1 μM, % of the response to 1 μM sTrica-SK(5–13) | aequorin bioluminescence in CHO-WTA11 cells transfected with the receptor, peptide at 1 μM, % of the response to 1 μM sTrica-SK(5–13) (this peptide is the 100% reference) | Binder |
| --- | --- | --- |
| 16.5% |  | B3 |
| 23.6% |  | B4 |
| 75% |  | B2 |
| 43.4% |  | HMRF-NH2 [2052[φ1]wp-3] |
| 16.4% |  | SPVDYDRPIMAF-NH2 [1432-2[φ]wp-6] |
| 13.3% |  | GHMRF-NH2 [2053[φ1]wp-4] |
| 26.3% |  | YGHMRF-NH2 (ends and bridges not checked) [2011[φ1]wp-1] |
| 6.2% |  | B5 |
|  | 100% | B1 |
| 28.5% |  | B6 |
| 25.8% |  | FDDYGHMR-NH2 (ends and bridges not checked) [2076[φ1]wp-2] |
| 58.2% |  | B7 |
| 40.8% |  | B8 |

Target: Tribolium castaneum sulfakinin receptor 2 (T. castaneum)
Remark: another data set of the same source

| EC50 of aequorin bioluminescence (Ca2+) in CHO-PAM28 cells (no Gα16) transfected with the receptor | Binder |
| --- | --- |
| 1.61 nM | B1 |

Target: Tribolium castaneum sulfakinin receptor 1 (T. castaneum)
Remark: another data set of the same source

| EC50 of aequorin bioluminescence (Ca2+) in CHO-PAM28 cells (no Gα16) transfected with the receptor | Binder |
| --- | --- |
| 0.0585 nM | B1 |
